This note sets out measurements from US20150284431A1.

Square brackets hold non-standard residues; d marks the D form. * marks the point of attachment. Butanoyl(4-Ph) = O=C(CCCc1ccccc1)*; Butanoyl(4-ethynyl) = C#CCCCC(=O)*

Experiment [1] concerns the target human melanocortin 1 receptor (human) (UniProt Q01726). Put plainly: competition with Eu-NDP-alpha-MSH, Eu time-resolved fluorescence, HCT116/hMC1R cells; concentration normalized to the targeting group.
Experiment [2] has the same target. As to the kind of experiment: competition with Eu-NDP-alpha-MSH, time-resolved fluorescence; 10% ligand loading.

Chain of human melanocortin 1 receptor (human) (Q01726 whole entry): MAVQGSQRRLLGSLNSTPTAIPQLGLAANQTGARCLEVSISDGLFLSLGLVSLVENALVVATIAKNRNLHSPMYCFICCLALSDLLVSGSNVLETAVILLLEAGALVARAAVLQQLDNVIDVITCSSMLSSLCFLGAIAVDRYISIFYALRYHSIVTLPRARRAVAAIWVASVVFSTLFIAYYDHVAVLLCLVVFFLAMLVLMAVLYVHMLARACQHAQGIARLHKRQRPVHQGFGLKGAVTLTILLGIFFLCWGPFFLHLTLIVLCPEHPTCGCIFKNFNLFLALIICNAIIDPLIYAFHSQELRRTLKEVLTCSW

B1: 4-targeted micelles (peptide, part only; not given: triblock polymer carrier, part only)
peptide: HFRWGK
modifications: not fully specified; N-terminal 4-phenylbutyryl; DPhe at 2; Lys(hex-5-ynoyl) at 6 joined by a 1,2,3-triazole to the PEG block of the triblock polymer; C-terminal amide
In general, Ki refers to a measure of affinity in units of concentration, obtained from inhibition or displacement. A lower Ki goes with a stronger hold on the target. B1 had a Ki in experiment [1] of 11.5 nM.

B2: 4-targeted triblock polymer (peptide, part only; not given: triblock polymer, part only)
peptide: HFRWGK
modifications: N-terminal 4-phenylbutyryl; DPhe at 2; Lys(hex-5-ynoyl) at 6 joined by a 1,2,3-triazole (click reaction) to the azide end of the PEG block of the triblock polymer; C-terminal amide
Regarding B2, the Ki in experiment [1] came out at 25.6 nM.

B3: 4-targeted crosslinked (XL) micelle (peptide, part only; not given: crosslinked triblock polymer carrier, part only)
peptide: {Butanoyl(4-Ph)}-H[dF]RWGK(Butanoyl(4-ethynyl))-NH2
modifications: also: micelle crosslinked with Fe(III), triblock polymer block lengths not given here
The molecule B3 displayed a Ki in experiment [2] of 2.9 nM.
The same measure, in the same setting: as for {Butanoyl(4-Ph)}-H[dF]RWGK(Butanoyl(4-ethynyl))-NH2 (peptide, part only; not given: triblock polymer carrier, part only, also: micelle not crosslinked, triblock polymer block lengths not given here) [4-targeted uncrosslinked (UXL) micelle], the figure is 12 nM.
